Test results reported in US20140148501, “DNA APTAMERS FOR PROMOTING REMYELINATION” (MAYO FOUNDATION FOR MEDICAL EDUCATION AND RESEARCH, published 2014).

How the values were obtained:
[1] = biological target: T1, Myelin oligodendrocyte glycoprotein MOG (23.8 kDa band) (Mus musculus, UniProt Q61885 Q61885:29-246); experiment: southwestern blot; control selected for chelated Ni; conditions: tags: none; from crude SJL mouse CNS myelin, SDS-PAGE separated and blotted to PVDF; label: 5'-fluorescein; putative intramolecular G4
T1 sequence: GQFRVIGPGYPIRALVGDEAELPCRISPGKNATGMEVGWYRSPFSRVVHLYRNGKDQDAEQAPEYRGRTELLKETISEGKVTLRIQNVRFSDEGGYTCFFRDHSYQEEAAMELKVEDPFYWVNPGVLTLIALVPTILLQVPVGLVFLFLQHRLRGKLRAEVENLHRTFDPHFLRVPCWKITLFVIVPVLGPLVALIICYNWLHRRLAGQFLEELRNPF
Protocol: (§1) After electrophoresis, duplicate lanes were either stained with Coomassie blue dye or transferred to polyvinylidene fluoride (PVDF) membrane by electroblotting. Western blotting was performed by standard methods using antibodies with the indicated specificities. For southwestern blots, membranes were blocked for 30 minutes at 37° C. in tris-buffered saline and TWEEN® 20 (TBST) buffer containing with 1% bovine serum albumin (BSA), 10% non-fat dry milk, 2 mg/mL sonicated and heat-denatured salmon testis DNA, and TWEEN® 20 detergent. Folded fluorescent aptamers (5 μM final concentration) were then added in PBS containing 1 mM MgCl₂ and incubated with PVDF membranes for 14 hours, followed by washing in TBST buffer and then in 0.5× tris/borate/EDTA (TBE) buffer. Fluorescein fluorescence was then detected on membranes using the Typhoon Fluorescent Imaging system. Tryptic peptide mass fingerprinting was performed.
(§2) The specificity of anti-myelin DNA aptamer 3064 and controls 3060 and 3202 was analyzed by assessing the binding of fluorescent aptamers to crude myelin protein suspension using centrifugal sedimentation to recover bound aptamers (FIG. 5A). […] To further assess specificity, crude myelin proteins were separated by SDS-polyacrylamide gel electrophoresis and stained with Coomassie dye (myelin; FIG. 5B, left lane), or blotted to polyvinylidene (PVDF) membrane and probed with antibodies against myelin basic protein (MBP), proteolipid protein (PLP), or MOG in western blots (FIG. 5B, lanes 2-4), or probed with fluorescent aptamers 3202, 3060 or 3064 in southwestern blots (FIG. 5B, lanes 5-7). […] In particular, control aptamer 3060 and myelin-specific aptamer 3064 both bound to three myelin proteins with apparent molecular weights of 12.5 kDa, 18.5 kDa, and 23.8 kDa. Based on western analysis and mass spectrometry of tryptic peptides, these proteins were PLP, the 18.5 kDa isoform of MBP, and MOG, respectively.

[2] = biological target: T2, Proteolipid protein PLP (12.5 kDa band) (Mus musculus, UniProt P60202 P60202:2-277); experiment: as above; conditions: tags: none; from crude SJL mouse CNS myelin, SDS-PAGE separated and blotted to PVDF; label: 5'-fluorescein; putative intramolecular G4
T2 sequence: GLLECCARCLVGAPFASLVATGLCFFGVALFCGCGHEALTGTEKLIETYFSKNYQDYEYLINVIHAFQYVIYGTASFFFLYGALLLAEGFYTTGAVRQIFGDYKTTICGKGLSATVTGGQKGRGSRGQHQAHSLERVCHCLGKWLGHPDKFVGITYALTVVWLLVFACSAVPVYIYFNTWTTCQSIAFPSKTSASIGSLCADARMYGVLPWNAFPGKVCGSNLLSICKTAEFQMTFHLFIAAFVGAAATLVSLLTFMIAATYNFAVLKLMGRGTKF
Protocol: as §1, §2

[3] = biological target: T3, Myelin basic protein 18.5 kDa isoform (Mus musculus, UniProt P04370-5 P04370-5:2-169); experiment: as above; conditions: tags: none; from crude SJL mouse CNS myelin, SDS-PAGE separated and blotted to PVDF; label: 5'-fluorescein; putative intramolecular G4
T3 sequence (P04370 other isoform, or with tags, fused parts or gaps): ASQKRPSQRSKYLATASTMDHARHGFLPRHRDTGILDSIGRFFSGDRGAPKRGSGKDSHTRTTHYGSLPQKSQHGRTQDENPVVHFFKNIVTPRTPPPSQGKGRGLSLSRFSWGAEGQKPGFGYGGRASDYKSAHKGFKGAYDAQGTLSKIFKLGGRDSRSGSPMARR
Protocol: as §1, §2

[4] = biological target: T4, Myelin basic protein isoforms containing exon 2-encoded sequence (17 kDa and 21.5 kDa) (Mus musculus, UniProt P04370-4 P04370-4:2-195); experiment: southwestern blot; 17 and 21.5 kDa bands bound only by 3064; conditions: tags: none; from crude SJL mouse CNS myelin, SDS-PAGE separated and blotted to PVDF; label: 5'-fluorescein; putative intramolecular G4
T4 sequence (P04370 other isoform, or with tags, fused parts or gaps): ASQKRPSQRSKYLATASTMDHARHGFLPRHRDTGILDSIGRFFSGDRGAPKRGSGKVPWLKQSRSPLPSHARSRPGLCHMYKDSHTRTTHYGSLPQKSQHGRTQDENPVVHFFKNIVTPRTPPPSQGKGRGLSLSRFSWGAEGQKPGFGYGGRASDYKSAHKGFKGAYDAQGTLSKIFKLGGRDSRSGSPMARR
Protocol: (§3) To promote intramolecular folding, aptamer stock solutions (5 μM) in PBS were heated to 90° C., MgCl₂ was added to a final concentration of 1 mM, and solutions were allowed to cool room temperature. Myelin stock was diluted in PBS and sonicated on ice. Fluorescent folded aptamers were added to different amounts of myelin suspension and incubated at 37° C. for 3 hours. Insoluble material with bound aptamers was recovered by centrifugation for 30 seconds in a microcentrifuge. The pellet was washed with 100 μL PBS and again recovered by centrifugation. After phenol extraction and ethanol precipitation, fluorescent aptamers were quantitated in black plastic 96-well plates using a Typhoon Fluorescent Imaging system (GE Healthcare Biosciences; Piscataway, N.J.). For Southwestern blotting, 15 μg crude myelin protein was separated in each lane of a 10% Bis-Tris SDS polyacrylamide gel in 2-(N-morpholino)ethanesulfonic acid (MES) buffer. […] Fluorescein fluorescence was then detected on membranes using the Typhoon Fluorescent Imaging system. […]
(§4) The specificity of anti-myelin DNA aptamer 3064 and controls 3060 and 3202 was analyzed by assessing the binding of fluorescent aptamers to crude myelin protein suspension using centrifugal sedimentation to recover bound aptamers (FIG. 5A).

[5] = biological target: T1, Myelin oligodendrocyte glycoprotein MOG …; experiment: southwestern blot; conditions: tags: none; from crude SJL mouse CNS myelin, SDS-PAGE separated and blotted to PVDF; label: 5'-fluorescein
Protocol: (§5) To promote intramolecular folding, aptamer stock solutions (5 μM) in PBS were heated to 90° C., MgCl₂ was added to a final concentration of 1 mM, and solutions were allowed to cool room temperature. Myelin stock was diluted in PBS and sonicated on ice. Fluorescent folded aptamers were added to different amounts of myelin suspension and incubated at 37° C. for 3 hours. Insoluble material with bound aptamers was recovered by centrifugation for 30 seconds in a microcentrifuge. The pellet was washed with 100 μL PBS and again recovered by centrifugation. After phenol extraction and ethanol precipitation, fluorescent aptamers were quantitated in black plastic 96-well plates using a Typhoon Fluorescent Imaging system (GE Healthcare Biosciences; Piscataway, N.J.). For Southwestern blotting, 15 μg crude myelin protein was separated in each lane of a 10% Bis-Tris SDS polyacrylamide gel in 2-(N-morpholino)ethanesulfonic acid (MES) buffer. After electrophoresis, duplicate lanes were either stained with Coomassie blue dye or transferred to polyvinylidene fluoride (PVDF) membrane by electroblotting. Western blotting was performed by standard methods using antibodies with the indicated specificities. For southwestern blots, membranes were blocked for 30 minutes at 37° C. in tris-buffered saline and TWEEN® 20 (TBST) buffer containing with 1% bovine serum albumin (BSA), 10% non-fat dry milk, 2 mg/mL sonicated and heat-denatured salmon testis DNA, and TWEEN® 20 detergent. Folded fluorescent aptamers (5 μM final concentration) were then added in PBS containing 1 mM MgCl₂ and incubated with PVDF membranes for 14 hours, followed by washing in TBST buffer and then in 0.5× tris/borate/EDTA (TBE) buffer. Fluorescein fluorescence was then detected on membranes using the Typhoon Fluorescent Imaging system. Tryptic peptide mass fingerprinting was performed.
as §4

[6] = biological target: T2, Proteolipid protein PLP (12.5 kDa band); experiment: southwestern blot; conditions: tags: none; from crude SJL mouse CNS myelin, SDS-PAGE separated and blotted to PVDF; label: 5'-fluorescein
Protocol: as §5, §4

[7] = biological target: T3, Myelin basic protein 18.5 kDa isoform; experiment: southwestern blot; conditions: tags: none; from crude SJL mouse CNS myelin, SDS-PAGE separated and blotted to PVDF; label: 5'-fluorescein
Protocol: as §5, §4

[8] = biological target: T4, Myelin basic protein isoforms …; experiment: southwestern blot; conditions: tags: none; from crude SJL mouse CNS myelin, SDS-PAGE separated and blotted to PVDF; label: 5'-fluorescein
Protocol: as §5, §4

[9] = biological target: T1, Myelin oligodendrocyte glycoprotein MOG …; experiment: southwestern blot; 5 uM aptamer, PBS, 1 mM MgCl2; conditions: tags: none; from crude SJL mouse CNS myelin, SDS-PAGE separated and blotted to PVDF; label: 5'-fluorescein; putative intramolecular G4
Protocol: as §5, §4

[10] = biological target: T2, Proteolipid protein PLP (12.5 kDa band); experiment: southwestern blot; 5 uM aptamer, PBS, 1 mM MgCl2; conditions: tags: none; from crude SJL mouse CNS myelin, SDS-PAGE separated and blotted to PVDF; label: 5'-fluorescein; putative intramolecular G4
Protocol: as §5, §4

[11] = biological target: T3, Myelin basic protein 18.5 kDa isoform; experiment: southwestern blot; 5 uM aptamer, PBS, 1 mM MgCl2; conditions: tags: none; from crude SJL mouse CNS myelin, SDS-PAGE separated and blotted to PVDF; label: 5'-fluorescein; putative intramolecular G4
Protocol: as §5, §4

[12] = biological target: T4, Myelin basic protein isoforms …; experiment: southwestern blot; unique to 3064; 5 uM aptamer, PBS, 1 mM MgCl2, 14 h; conditions: tags: none; from crude SJL mouse CNS myelin, SDS-PAGE separated and blotted to PVDF; label: 5'-fluorescein; putative intramolecular G4
Protocol: as §3, §4

## AAAGAACAAAAAGGATAAAGGGGGAGACGGGGGGAACATGGGG (ssDNA) [3060]
[1]
  binding result: binds
[2]
  binding result: binds
[3]
  binding result: binds
[4]
  binding result: no binding

## TTTTTTTTTTTTTTTTTTTTTTTTTTTTTTTTTTTTTTTT (ssDNA) [3202 (dT40)]
[5]
  binding result: no binding
[6]
  binding result: no binding
[7]
  binding result: no binding
[8]
  binding result: no binding

## GGGTCGGCGGGTGGGGTGGGAGGTGGTCTTGTCTCTGGGT (ssDNA) [3064]
[9]
  binding result: binds
[10]
  binding result: binds
[11]
  binding result: binds
[12]
  binding result: binds
